Experimental findings from patent US7025971 are described below.

The experiment addresses T1, PapD (wild type) (E. coli), P15319.
T1 chain: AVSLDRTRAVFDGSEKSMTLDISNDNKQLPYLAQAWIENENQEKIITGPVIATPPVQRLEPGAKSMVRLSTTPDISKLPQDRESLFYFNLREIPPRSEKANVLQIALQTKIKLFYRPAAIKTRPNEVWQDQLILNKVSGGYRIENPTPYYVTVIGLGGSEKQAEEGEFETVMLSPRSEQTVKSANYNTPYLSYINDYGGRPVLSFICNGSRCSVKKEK

In general, % Inhibition refers to the share of the control response that was lost under treatment. Lower therefore signals little suppression. YALAPNAVIPTSLALL (modifications not checked) [MS] gave a % Inhibition of 1%.

With LSFP (modifications not checked) [G1′-4′], the % Inhibition is 0%.
